Data on one protein can be found in patent US20040053235A1 (published 2004).

The data set deals with the molecule itself. Description: size exclusion chromatography on Superdex 200: activity peaks at 42.4 and 87.5 kD, each a single 42.2 kD polypeptide on SDS-PAGE (self-association). The method, then: Further purification of the enzyme activity was carried out by Ni2+ affinity chromatography (which binds the poly-histidine tag of the recombinant protein) and size exclusion chromatography. Nickel affinity chromatography was carried out by passing an E. coli extract, prepared as described above, through a column containing NTA-agarose (Novagen “His-Bind Resin”). 5 ml of the resin were washed with 30 ml H₂O, charged with 30 ml NiSO₄ washed with 30 ml H₂O and equilibrated with 30 ml 50 mM Na-phosphate pH 8, 300 mM NaCl. The E. coli pellet was suspended in 50 mM Na-phosphate pH 8, 300 mM NaCl and sonicated. The suspension was centrifuged again (9000 g, 20 min). The supernatant was stirred with the Ni-resin on ice for 1 hour. The suspension was transferred into a column. After settling down the column was washed with 250 ml 50 mM Na-phosphate pH 6 containing 300 mM NaCl an d 10% glycerol. Ni-bound protein was eluted with 500 mM imidazole/50 mM Na-phosphate at pH 6 containing 300 mM NaCl. Fractions were collected and assayed for L-galactose dehydrogenase activity. […] This sample was then subjected to size exclusion chromatography on a Superdex 200 column (Amersham-Pharmacia Biotech) using 25 mM tris-HCl buffer pH 7 containing 150 mM NaCl as eluent Fractions (1 ml) were collected and two peaks of activity corresponding to molecular weights of 42.4 and 87.5 kD were detected. […]

B1: recombinant Arabidopsis thaliana L-galactose dehydrogenase (expressed in E. coli from pRSETB-LgalDH, with poly-histidine tag) (enzyme)
chain: MTKIELRALGNTGLKVSAVGFGASPLGSVFGPVAEDDAVATVREAFRLGINFFDTSPYYGGTLSEKMLGKGLKALQVPRSDYIVATKCGRYKEGFDFSAERVRKSIDESLERLQLDYVDILHCHDIEFGSLDQIVSETIPALQKLKQEGKTRFIGITGLPLDIFTYVLDRVPPGTVDVILSYCHYGVNDSTLLDLLPYLKSKGVGVISASPLAMGLLTEQGPPEWHPASPELKSASKAAVAHCKSKGKKITKLALQYSLANKEISSVLVGMSSVSQVEENVAAVTELESLGMDQETLSEVEAILEPVKNLTWPSGIHQN
notes: The entry describes one subunit; also called recombinant L-galDH; not shown: poly-histidine tag and vector-encoded residues from pRSETB
As for B1, the binding result is reported as “binds”.
